Results as given in US20040171629.

T1: annexin V, P08758
T1 chain: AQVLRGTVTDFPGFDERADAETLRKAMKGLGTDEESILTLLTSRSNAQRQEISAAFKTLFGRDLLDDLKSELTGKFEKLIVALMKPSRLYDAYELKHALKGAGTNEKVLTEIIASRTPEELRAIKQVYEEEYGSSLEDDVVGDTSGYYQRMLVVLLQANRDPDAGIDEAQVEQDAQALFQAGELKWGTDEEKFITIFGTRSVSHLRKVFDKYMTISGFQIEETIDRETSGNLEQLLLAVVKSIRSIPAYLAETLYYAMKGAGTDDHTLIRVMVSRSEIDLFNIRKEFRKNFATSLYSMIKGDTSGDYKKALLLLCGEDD


How the values were obtained:
[1] = target: FITC-labeled, dephosphorylated casein
annexin V, P08758 = target: T1, annexin V, P08758
[2] = target: kidney membrane associated proteins

Protein	proteolytic activity, fluorescence at 535 nm of Dcasein-FITC [1]	proteolytic activity, SDS-PAGE with Coomassie Blue staining (β-casein)	cleavage in human kidney cytoplasmic extract, 2-dimensional gel electrophoresis (annexin V, P08758)	cleavage in human kidney membrane extract, 2-dimensional gel electrophoresis [2]
MBP-Omi-(134-458) (protein) AVPSPPPASPRSQYNFIADVVEKTAPAVVYIEILDRHPFLGREVPISNGSGFVVAADGLIVTNAHVVADRRRVRVRLLSGDTYEAVVTAVDPVADIATLRIQTKEPLPTLPLGRSADVRQGEFVVAMGSPFALQNTITSGIVSSAQRPARDLGLPQTNVEYIQTDAAIDFGNSGGPLVNLDGEVIGVNTMKVTAGISFAIPSDRLREFLHRGEKKNSSSGISGSQRRYIGVMMLTLSPSILAELQLREPSFPDVQHGVLIHKVILGSPAHRAGLRPGDVILAIGEQMVQNAEDVYEAVRTQSQLAVQIRRGRETLTLYVTPEVTE	there was a rapid increase in fluorescence for the first 20 min followed by a slower increase for the remaining 10 min of the assay	–	–	–
His-tagged Omi-(134-458) (protein) AVPSPPPASPRSQYNFIADVVEKTAPAVVYIEILDRHPFLGREVPISNGSGFVVAADGLIVTNAHVVADRRRVRVRLLSGDTYEAVVTAVDPVADIATLRIQTKEPLPTLPLGRSADVRQGEFVVAMGSPFALQNTITSGIVSSAQRPARDLGLPQTNVEYIQTDAAIDFGNSGGPLVNLDGEVIGVNTMKVTAGISFAIPSDRLREFLHRGEKKNSSSGISGSQRRYIGVMMLTLSPSILAELQLREPSFPDVQHGVLIHKVILGSPAHRAGLRPGDVILAIGEQMVQNAEDVYEAVRTQSQLAVQIRRGRETLTLYVTPEVTE	–	had substantial activity against β-casein, and after 30 min total degradation of the substrate occurred	two polypeptides (32 kD and 29 kD) in the human kidney cytoplasmic fraction were specifically cleaved by His-Omi	No proteins were cleaved in the membrane bound fractions
